Three molecules from US10005846 (LIFEARC, dated 2018) can be followed below.

In experiment [1] the target is T1, human transglutaminase type 2 (TG2) (human, UniProt P21980 1-687).
T1 construct: Recombinant full-length human TG2 (Zedira; cat; T002 in the Biacore work); Also used here for the endogenous TG2 of HepG2 lysate and HK-2 cells; also called hTG2; rhTG2
T1 sequence: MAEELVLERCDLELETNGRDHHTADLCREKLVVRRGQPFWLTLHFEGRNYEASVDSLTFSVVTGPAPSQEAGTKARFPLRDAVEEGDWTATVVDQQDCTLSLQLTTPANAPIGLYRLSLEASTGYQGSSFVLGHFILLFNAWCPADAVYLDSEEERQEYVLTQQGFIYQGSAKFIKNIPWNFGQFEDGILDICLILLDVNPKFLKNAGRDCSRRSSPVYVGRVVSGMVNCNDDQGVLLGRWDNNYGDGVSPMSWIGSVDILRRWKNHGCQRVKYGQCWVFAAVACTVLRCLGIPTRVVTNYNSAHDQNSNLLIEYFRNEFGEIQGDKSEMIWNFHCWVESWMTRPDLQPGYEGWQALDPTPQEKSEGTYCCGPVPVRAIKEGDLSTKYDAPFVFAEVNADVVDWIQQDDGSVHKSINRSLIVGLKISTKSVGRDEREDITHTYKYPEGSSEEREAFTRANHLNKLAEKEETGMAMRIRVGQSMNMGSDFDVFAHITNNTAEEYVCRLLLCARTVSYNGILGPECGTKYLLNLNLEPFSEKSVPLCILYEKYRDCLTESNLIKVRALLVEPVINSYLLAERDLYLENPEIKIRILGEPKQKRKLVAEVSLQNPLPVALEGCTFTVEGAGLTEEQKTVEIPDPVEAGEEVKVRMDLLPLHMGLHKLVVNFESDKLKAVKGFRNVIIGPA
Kind of experiment: ELISA on immobilised human TG2; r2 0.9682; EC50 95% confidence range 0.03611 to 0.06410 [continued), panel B]. The procedure: (§1) Antibody binding to human and cynomolgus monkey TG2 was determined in an ELISA assay. Clear polystyrene "Maxisorp" 96-well plates (Nunc) were coated with 50 ng purified human or cynomogulus monkey TG2 in 50 µl 0.05 M carbonate-bicarbonate buffer pH 9.6 at 4° C. overnight. Control wells were coated with 50 µl 100 µg/ml bovine serum albumin (BSA). Plates were washed 3× with 300 µl phosphate-buffered saline pH7.4 (PBS) containing 0.1% Tween 20 (PBST) and blocked with 300 µl 3% w/v Marvel skimmed milk in PBS for 1 hour at room temperature. After 3× wash with PBST, 50 µl protein-A purified chimeric or humanised anti-TG2 antibodies or human IgG1 kappa […] control antibody or CUB7402 (Abcam) were serially diluted 4-fold from a top concentration of 50 nM in PBS, and added to the plate in duplicate. […] After 3× washes with PBST, the plates were developed with 50 µl TMB substrate (Sigma) for 5 min at room temperature before stopping the reaction with 25 µl 0.5M H2SO4 and reading absorbance at 450 nm in a microtiter plate reader (BioTek EL808). Dose response curves were analysed and EC50 values and other statistical parameters determined using a 4-parameter logistical fit of the data (GraphPad Prism).
For orientation: In an ELISA, binding on a coated surface is turned into a signal by an enzyme label.

Experiment [2] deals with T2, cynomolgus monkey TG2 (cynomolgus monkey, UniProt A0A2K5VXI8 1-687).
T2 construct: Bought recombinant protein; also called cynomogulus monkey TG2; cyano TG2
T2 sequence: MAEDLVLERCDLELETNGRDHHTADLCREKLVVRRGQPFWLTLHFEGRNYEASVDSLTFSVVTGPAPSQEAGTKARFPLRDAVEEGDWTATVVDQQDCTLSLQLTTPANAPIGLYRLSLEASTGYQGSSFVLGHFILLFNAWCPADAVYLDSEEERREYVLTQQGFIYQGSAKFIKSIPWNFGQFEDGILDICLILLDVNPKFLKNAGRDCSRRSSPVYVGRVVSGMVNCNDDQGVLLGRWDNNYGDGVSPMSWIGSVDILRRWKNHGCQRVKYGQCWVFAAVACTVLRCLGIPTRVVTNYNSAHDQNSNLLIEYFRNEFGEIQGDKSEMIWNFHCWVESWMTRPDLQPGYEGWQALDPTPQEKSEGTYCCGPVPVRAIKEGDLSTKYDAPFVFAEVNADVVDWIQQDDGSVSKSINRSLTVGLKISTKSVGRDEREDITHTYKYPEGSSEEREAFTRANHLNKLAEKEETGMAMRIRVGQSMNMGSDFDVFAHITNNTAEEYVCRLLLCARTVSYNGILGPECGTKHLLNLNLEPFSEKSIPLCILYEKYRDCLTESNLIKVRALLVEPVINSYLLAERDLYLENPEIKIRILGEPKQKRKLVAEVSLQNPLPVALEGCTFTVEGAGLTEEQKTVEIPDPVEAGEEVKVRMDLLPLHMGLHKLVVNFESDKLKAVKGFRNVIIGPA
Kind of experiment: ELISA on immobilised cynomolgus monkey TG2; r2 0.9383; EC50 95% confidence range 0.03303 to 0.08079 [panel B]. The method, then: as §1

Experiment [3] deals with T1, human transglutaminase type 2 (TG2). Kind of experiment: cell-based or functional assay.
Experiment [4] shares this target. The experiment in a line: ELISA on immobilised human TG2; r2 0.9968; EC50 95% confidence range 0.2890 to 0.4002 [panel A]. The procedure:
as §1

The target of experiment [5] is T2, cynomolgus monkey TG2. The experiment in a line: ELISA on immobilised cynomolgus monkey TG2; r2 0.9986; EC50 95% confidence range 0.6682 to 0.8162 [panel A]. The method, then: as §1
Experiment [6] concerns the target T1, human transglutaminase type 2 (TG2). Kind of experiment: cell-based or functional assay. This is another data set of the same source.
For experiment [7] the target is unchanged. The experiment in a line: ELISA on immobilised human TG2; r2 0.998; EC50 95% confidence range 0.1860 to 0.2368 [panel A]. The method, then:
as §1

Experiment [8] has as its target T2, cynomolgus monkey TG2. The experiment in a line: ELISA on immobilised cynomolgus monkey TG2; r2 0.9992; EC50 95% confidence range 0.3040 to 0.3536 [panel A]. The method, then:
as §1

B1: cBB001 chimeric antibody (murine BB7 variable regions) (antibody, human IgG1, V domains shown)
VH: AVQLVESGGGLVKPGGSLKLSCAASGIIFSSSAMSWVRQTPEKRLEWVATISSGGRSTYYPDSVKGRFTVSRDSAKNTLYLQMDSLRSEDTAIYYCAKLISPYWGQGTTLTVSS
VL: AIKMTQSPSSMYASLGERVIITCKASQDINSYLTWFQQKPGKSPKTLIYLTNRLMDGVPSRFSGSGSGQEFLLTISGLEHEDMGIYYCLQYVDFPYTFGGGTKLEIK
notes: also called chimeric BB7
In the case of B1, the EC50 (commonly the concentration needed to bring the measured effect to its halfway point) in experiment [1] was determined as 48.1 pM; in the experiment with cynomolgus monkey TG2 [2], 51.7 pM.

B2: cDH001 chimeric antibody (murine DH2 variable regions) (antibody, human IgG1, V domains shown)
VH: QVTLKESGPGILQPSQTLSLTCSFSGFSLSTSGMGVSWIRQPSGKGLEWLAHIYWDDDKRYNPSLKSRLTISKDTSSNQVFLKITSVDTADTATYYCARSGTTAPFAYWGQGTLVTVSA
VL: QIVLTQSPAIMSASPGEKVTMTCSASSSVSYMYWYQQKPGSSPRLLIYDTSNLASGVPVRFSGSGSGTSYSLTISRMEAEDAATFYCQQWSSSPLTFGAGTKLELK
Turning to B2, the “IC50 of enzymatic inhibition, dansylated lysine incorporation into N,N-dimethylated casein [continued), panel E]” value in experiment [3] was determined as 829000 pM. For the same molecule, the EC50 in experiment [4] turned out to be 340 pM; in the experiment with cynomolgus monkey TG2 [5], 738 pM.

B3: cDD9001 chimeric antibody (murine DD9 variable regions) (antibody, human IgG1, V domains shown)
VH: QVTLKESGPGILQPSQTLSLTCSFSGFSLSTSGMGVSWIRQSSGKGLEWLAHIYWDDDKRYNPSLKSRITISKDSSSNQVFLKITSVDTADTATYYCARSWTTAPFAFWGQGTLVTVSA
VL: QIVLTQSPAIMSASPGEKVTMTCSASSSVDYMYWYQQKPGSSPRLLIYDTSNLASGVPVRFSGSGSGTSYSLTISRMGAEDAATYYCQQWNSSPLTFGAGTKLELK
As to B3, in experiment [6], the “IC50 of enzymatic inhibition, dansylated lysine incorporation into N,N-dimethylated casein [continued), panel D]” value was found to be 172000 pM. In addition, the EC50 in experiment [7] is 210 pM; with cynomolgus monkey TG2 [8] it was 328 pM.
